Experimental data reported in patent publication US6710030.
Each block holds one substance with its values, some of them ahead of it.

Assays:
Assay in all cases: cell-based or functional assay
[1] = biological target: integrin αvβ3 on cells (T24, MDA-MB-435, β3-transfected 293 cells) (human) (UniProt P06756)
[2] = biological target: integrin αvβ5 on cells (T24, T24-β3 neg., OVCAR-5) (human) (UniProt P06756)
[3] = biological target: integrin receptors on the surface of MDA-MB-435 cells

Chain of integrin αvβ5 on cells (T24, T24-β3 neg., OVCAR-5) (human) (P06756 31-1048, chain 1 of 2): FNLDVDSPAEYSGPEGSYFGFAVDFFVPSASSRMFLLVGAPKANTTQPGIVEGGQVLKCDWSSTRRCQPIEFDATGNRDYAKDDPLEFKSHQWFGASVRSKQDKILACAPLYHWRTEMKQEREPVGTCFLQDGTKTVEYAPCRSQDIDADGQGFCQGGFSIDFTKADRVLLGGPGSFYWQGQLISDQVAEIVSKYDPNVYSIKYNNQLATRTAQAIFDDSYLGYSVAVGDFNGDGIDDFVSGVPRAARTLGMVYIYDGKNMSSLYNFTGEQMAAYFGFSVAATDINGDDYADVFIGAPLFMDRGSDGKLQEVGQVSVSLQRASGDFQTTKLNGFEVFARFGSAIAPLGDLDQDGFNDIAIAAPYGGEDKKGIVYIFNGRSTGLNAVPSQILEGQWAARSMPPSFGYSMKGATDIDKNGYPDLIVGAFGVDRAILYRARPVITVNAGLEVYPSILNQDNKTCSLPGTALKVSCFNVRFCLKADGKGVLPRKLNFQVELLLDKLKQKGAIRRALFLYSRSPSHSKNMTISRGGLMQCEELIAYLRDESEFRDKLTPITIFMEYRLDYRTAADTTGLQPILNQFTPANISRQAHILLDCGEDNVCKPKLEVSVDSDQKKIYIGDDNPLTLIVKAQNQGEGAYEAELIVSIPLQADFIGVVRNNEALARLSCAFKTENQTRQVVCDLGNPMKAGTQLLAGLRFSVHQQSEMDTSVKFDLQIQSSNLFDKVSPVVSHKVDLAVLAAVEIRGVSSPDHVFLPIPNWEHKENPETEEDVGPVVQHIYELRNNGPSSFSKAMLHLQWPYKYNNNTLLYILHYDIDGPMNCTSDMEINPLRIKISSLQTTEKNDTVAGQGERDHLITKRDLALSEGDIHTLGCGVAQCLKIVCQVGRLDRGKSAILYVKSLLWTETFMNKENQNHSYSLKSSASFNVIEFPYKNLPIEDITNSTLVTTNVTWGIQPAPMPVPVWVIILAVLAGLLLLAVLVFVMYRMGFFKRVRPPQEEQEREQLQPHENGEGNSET
Chain of integrin αvβ5 on cells (T24, T24-β3 neg., OVCAR-5) (human) (P18084 24-799, chain 2 of 2, further chain): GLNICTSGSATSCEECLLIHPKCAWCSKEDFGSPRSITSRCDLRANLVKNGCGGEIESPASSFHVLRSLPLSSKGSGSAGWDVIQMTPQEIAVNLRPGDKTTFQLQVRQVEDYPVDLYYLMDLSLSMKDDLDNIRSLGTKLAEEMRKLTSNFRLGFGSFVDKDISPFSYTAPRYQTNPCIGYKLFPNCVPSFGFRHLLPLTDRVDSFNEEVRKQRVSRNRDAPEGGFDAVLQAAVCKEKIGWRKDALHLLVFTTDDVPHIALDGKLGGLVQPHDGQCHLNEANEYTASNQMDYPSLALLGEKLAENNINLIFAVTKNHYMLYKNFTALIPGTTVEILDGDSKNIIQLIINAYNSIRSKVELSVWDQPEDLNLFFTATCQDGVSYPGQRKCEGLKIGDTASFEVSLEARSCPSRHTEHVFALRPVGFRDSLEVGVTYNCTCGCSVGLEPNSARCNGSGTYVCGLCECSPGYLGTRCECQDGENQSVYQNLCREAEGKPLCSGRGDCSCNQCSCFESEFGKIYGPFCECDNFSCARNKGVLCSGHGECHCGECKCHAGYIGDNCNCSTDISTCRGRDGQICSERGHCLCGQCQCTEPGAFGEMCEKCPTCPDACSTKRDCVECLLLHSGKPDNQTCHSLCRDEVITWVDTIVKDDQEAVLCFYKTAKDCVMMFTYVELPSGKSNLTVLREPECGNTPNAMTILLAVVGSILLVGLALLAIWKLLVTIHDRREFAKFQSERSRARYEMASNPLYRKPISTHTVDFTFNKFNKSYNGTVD
Chain of integrin αvβ3 on cells (T24, MDA-MB-435, β3-transfected 293 cells) (human) (P06756 31-1048, chain 1 of 2): as the sequence (P06756 31-1048, chain 1 of 2) above
Chain of integrin αvβ3 on cells (T24, MDA-MB-435, β3-transfected 293 cells) (human) (P05106 27-788, chain 2 of 2, further chain): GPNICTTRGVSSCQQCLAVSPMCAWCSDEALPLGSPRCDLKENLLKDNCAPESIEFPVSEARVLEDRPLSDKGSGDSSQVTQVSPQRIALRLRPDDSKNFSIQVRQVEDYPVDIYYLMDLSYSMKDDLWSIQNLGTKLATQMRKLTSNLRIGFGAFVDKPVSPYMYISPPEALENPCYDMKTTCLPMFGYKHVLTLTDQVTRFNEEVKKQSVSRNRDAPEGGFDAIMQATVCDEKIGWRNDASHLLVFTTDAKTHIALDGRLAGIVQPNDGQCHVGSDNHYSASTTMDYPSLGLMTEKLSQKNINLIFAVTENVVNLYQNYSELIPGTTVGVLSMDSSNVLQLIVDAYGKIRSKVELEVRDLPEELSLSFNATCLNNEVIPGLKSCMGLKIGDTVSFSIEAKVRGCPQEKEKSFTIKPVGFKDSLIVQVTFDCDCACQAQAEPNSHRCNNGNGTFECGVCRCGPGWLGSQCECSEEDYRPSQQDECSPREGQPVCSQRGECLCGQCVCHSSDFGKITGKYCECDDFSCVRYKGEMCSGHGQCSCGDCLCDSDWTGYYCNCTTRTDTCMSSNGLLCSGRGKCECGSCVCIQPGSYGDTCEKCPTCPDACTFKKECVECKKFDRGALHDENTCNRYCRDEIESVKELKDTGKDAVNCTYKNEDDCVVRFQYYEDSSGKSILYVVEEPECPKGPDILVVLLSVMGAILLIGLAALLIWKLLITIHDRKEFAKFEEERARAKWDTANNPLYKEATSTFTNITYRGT

inhibition of adhesion of T24 cells to immobilized vitronectin [1]: < 40%
Substance: 7E3, murine monoclonal antibody against (GP)IIb/IIIa that also binds αvβ3

inhibition of adhesion of T24-β3 neg. cells to immobilized vitronectin [2]: 80%
inhibition of adhesion of T24 cells to immobilized vitronectin [2]: < 40%
Substance: P1F6, anti-αvβ5 monoclonal antibody

Substance: RGD peptide GRGDSP
inhibition of binding of MDA-MB-435 cells to immobilized CN (IC50) [3]: 400 µM
